Reference: article PMC7498355, “A quantitative binding model for the Apl protein, the dual purpose recombination-directionality factor and lysis-lysogeny regulator of bacteriophage 186”

What was measured:
Conditions in all cases: protein: recombinant; label: 32P end label on one strand; blunt
Apl [1] = target: T1, Apl (bacteriophage 186, UniProt P21681 1-87); experiment: EMSA; multiple shifted species; EMSA: 50 mM Tris-HCl pH 7.5, 0.1 mM EDTA, 10% glycerol, 150 mM NaCl, on ice >=30 min, gel at 4 C; bending in TEG 50; footprint: same Tris/EDTA/glycerol with 75
T1 sequence: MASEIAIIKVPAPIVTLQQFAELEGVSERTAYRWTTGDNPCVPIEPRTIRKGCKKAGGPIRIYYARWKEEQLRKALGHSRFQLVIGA

Apl [2] = target: T1, Apl; experiment: EMSA; up to 6400 nM Apl; EMSA: 50 mM Tris-HCl pH 7.5, 0.1 mM EDTA, 10% glycerol, 150 mM NaCl, on ice >=30 min, gel at 4 C; bending in TEG 50; footprint: same Tris/EDTA/glycerol with 75
Apl [3] = target: T1, Apl; experiment: EMSA; pattern similar to central five pR-pL operators; EMSA: 50 mM Tris-HCl pH 7.5, 0.1 mM EDTA, 10% glycerol, 150 mM NaCl, on ice >=30 min, gel at 4 C; bending in TEG 50; footprint: same Tris/EDTA/glycerol with 75
Apl [4] = target: T1, Apl; experiment: EMSA; two retarded bands; EMSA: 50 mM Tris-HCl pH 7.5, 0.1 mM EDTA, 10% glycerol, 150 mM NaCl, on ice >=30 min, gel at 4 C; bending in TEG 50; footprint: same Tris/EDTA/glycerol with 75
Apl [5] = target: T1, Apl; experiment: EMSA; apparent Kd (50% DNA unbound); EMSA: 50 mM Tris-HCl pH 7.5, 0.1 mM EDTA, 10% glycerol, 150 mM NaCl, on ice >=30 min, gel at 4 C; bending in TEG 50; footprint: same Tris/EDTA/glycerol with 75

B1: Apl 6 (dsDNA)
DNA 1: TATTTTGGCTAAACCCACGCAATTGATGGCAAGTGTTGGCAAACAGAGTCAAATCAATTGCAAACTT
DNA 2: AAGTTTGCAATTGATTTGACTCTGTTTGCCAACACTTGCCATCAATTGCGTGGGTTTAGCCAAAATA
- binding result (Apl [1]): binds

B2: Apl 1101 (dsDNA)
DNA 1: AACCCACGCAATTGATGGCAAGTGTCTTAGGACAGAGTCAAATCA
DNA 2: TGATTTGACTCTGTCCTAAGACACTTGCCATCAATTGCGTGGGTT
- binding result (Apl [2]): no binding

B3: attP 5 (dsDNA)
DNA 1: ATCATTGACATAGATTGCCATTGTTTGCCAATAATTACCTATTATTCGCCATTTC
DNA 2: GAAATGGCGAATAATAGGTAATTATTGGCAAACAATGGCAATCTATGTCAATGAT
- binding result (Apl [3]): binds

B4: Apl 4 (dsDNA)
DNA 1: TTGATGGCAAGTGTTGGCAAACAGAGTCAAATCAATTGCAAACTT
DNA 2: AAGTTTGCAATTGATTTGACTCTGTTTGCCAACACTTGCCATCAA
- binding result (Apl [4]): binds

B5: Apl 10101 (dsDNA)
DNA 1: AACCCACGCAATTGACTTAGGGTGTTGGCAAACAGCTTAGGATCAATTGCAAACTT
DNA 2: AAGTTTGCAATTGATCCTAAGCTGTTTGCCAACACCCTAAGTCAATTGCGTGGGTT
- binding result (Apl [2]): no binding

B6: Apl 7 (dsDNA)
DNA 1: TATTTTGGCTAAACCCACGCAATTGATGGCAAGTGTTGGCAAACAGAGTCAAATCAATTGCAAACTTTGGCTAATAGG
DNA 2: CCTATTAGCCAAAGTTTGCAATTGATTTGACTCTGTTTGCCAACACTTGCCATCAATTGCGTGGGTTTAGCCAAAATA
- Kd (Apl [5]): ~275 nM

B7: Apl 2 (two pR-pL operators) (dsDNA)
DNA 1: TTGATGGCAAGTGTTGGCAAACAG
DNA 2: CTGTTTGCCAACACTTGCCATCAA
- binding result (Apl [2]): no binding

B8: Apl 3 (111) (dsDNA)
DNA 1: TTGATGGCAAGTGTTGGCAAACAGAGTCAAATCA
DNA 2: TGATTTGACTCTGTTTGCCAACACTTGCCATCAA
- Kd (Apl [5]): ~800 nM

B9: Apl 5 (dsDNA)
DNA 1: AACCCACGCAATTGATGGCAAGTGTTGGCAAACAGAGTCAAATCAATTGCAAACTT
DNA 2: AAGTTTGCAATTGATTTGACTCTGTTTGCCAACACTTGCCATCAATTGCGTGGGTT
- binding result (Apl [4]): binds

B10: Apl 101 (dsDNA)
DNA 1: TGATGGCAAGTGTCTTAGGACAGAGTCAAATCA
DNA 2: TGATTTGACTCTGTCCTAAGACACTTGCCATCA
- binding result (Apl [2]): no binding
